Experimental data taken from publication PMC2148171 (The Journal of Cell Biology, 1998).
Like-named read-outs stand apart in the source and are kept apart here.

Legend:
[1] = molecular target: the molecule itself; test: SEC + other: sucrose density gradient centrifugation
[2] = molecular target: the molecule itself; test: as above; remark: listed apart in the source

Row | Protein | stoichiometry N [1] | stoichiometry N [2]
1 | baculovirus produced 6x histidine-tagged recombinant CHO cell MCAK (mitotic centromere-associated kinesin) (natural protein, Chinese hamster (CHO cell MCAK), UniProt P70096 1-718, looked up) MESLPARLFPGLSIKIQRSNGLIHSANISTVNVEKSCVSVEWIEGGNTKGKEIDFDDVAAINPELLQLLPLHPKDNLPLQENVTVPKQKRRSVNSKIPAPKEGLRSRSTRMSTVPEVRIATQENEMEVELPVATNSRKQFSVATGLPRPSCPAMTELPLSMVSEEAEEQVHPTRSTSSANPARRKSCIVKEMEKMKNKREEKRAQNSEIRIKRAQEYDSSFPNWEFARMIKEFRVTIECHPLTLTDPTEEHRICVCVRKRPLNKQELAKKEIDVISVPSKCLLFVHEPKLKVDLTKYLENQAFCFDFAFDETASNEVVYRFTARPLVQTIFEGGKATCFAYGQTGSGKTHTMGGDLSGKSQNTSKGIYAMASRDVFLLKSQPRYRNLNLEVYVTFFEIYNGKVFDLLNKKAKLRVLEDSKQQVQVVGLQEYLVNCADDVIKMLNMGSACRTSGQTFANSNSSRSHACFQILLRAKGRLHGKFSLVDLAGNERGADTSSADRQTRMEGAEINKSLLALKECIRALGQNKAHTPFRESKLTQVLRDSFIGENSRTCMIAMISPGISSCEYTLNTLRYADRVKELSPHSGLSGEQPIQMETEEMEASSNGTSLAVNFKEEEELSSQMSSFNEAMSQIRELEERAMEELREIIQQGPGWLELSEMTDQPDYDLETFVNKAESALTQQTKHFSALREVIKALRVAMQLEEQASKQMNSKKRHQ | 2 | 
2 | MCAK (mitotic centromere-associated kinesin) in CHO cells (natural protein, Chinese hamster (endogenous in CHO-K1), UniProt P70096 1-718, looked up) MESLPARLFPGLSIKIQRSNGLIHSANISTVNVEKSCVSVEWIEGGNTKGKEIDFDDVAAINPELLQLLPLHPKDNLPLQENVTVPKQKRRSVNSKIPAPKEGLRSRSTRMSTVPEVRIATQENEMEVELPVATNSRKQFSVATGLPRPSCPAMTELPLSMVSEEAEEQVHPTRSTSSANPARRKSCIVKEMEKMKNKREEKRAQNSEIRIKRAQEYDSSFPNWEFARMIKEFRVTIECHPLTLTDPTEEHRICVCVRKRPLNKQELAKKEIDVISVPSKCLLFVHEPKLKVDLTKYLENQAFCFDFAFDETASNEVVYRFTARPLVQTIFEGGKATCFAYGQTGSGKTHTMGGDLSGKSQNTSKGIYAMASRDVFLLKSQPRYRNLNLEVYVTFFEIYNGKVFDLLNKKAKLRVLEDSKQQVQVVGLQEYLVNCADDVIKMLNMGSACRTSGQTFANSNSSRSHACFQILLRAKGRLHGKFSLVDLAGNERGADTSSADRQTRMEGAEINKSLLALKECIRALGQNKAHTPFRESKLTQVLRDSFIGENSRTCMIAMISPGISSCEYTLNTLRYADRVKELSPHSGLSGEQPIQMETEEMEASSNGTSLAVNFKEEEELSSQMSSFNEAMSQIRELEERAMEELREIIQQGPGWLELSEMTDQPDYDLETFVNKAESALTQQTKHFSALREVIKALRVAMQLEEQASKQMNSKKRHQ |  | 2
